Assays:
TCF4 DBD (mouse) = assay: PBM; details: not given in the material (PBM protein binding as described previously)
USF1 DBD (mouse) = assay: PBM; details: not given in the material (PBM protein binding as described previously)

Substance	binding signal (TCF4 DBD (mouse))	binding signal (USF1 DBD (mouse))
CAGGTGGT, cytosine	52 Z-score	–
GTCACGTG, cytosine	–	87 Z-score

Reference: PMC6289052
